Test results reported in the nanobody polyreactivity screen of Harvey et al. (2022).

Experiment: yeast display, Sf9 membrane polyspecificity reagent, FACS + sequencing; frameworks hold sequencing errors
Procedure, shortened: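 Sorting gates, low and high (top ~1%), were placed on anti-HA fluorescence to track expression and on streptavidin fluorescence to track reagent binding. A clone's polyreactivity label is taken from the gate it came out of. The reagent was 10% biotinylated, detergent-solubilized Sf9 membrane, applied for 1 hour at 4 °C to galactose-induced yeast display cells.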

Sequence	polyreactivity (PSR sort gate)
QVQHVESGGGLVQAGGSLRLSCAASGSTFYGYAMGWYRQAPGKERELVARISSSSGRTYYADSVKGRFTISRDNAKNTVYLQMNSLKPEDTAVFYCAARFLWSVFGRKGGYWGQGTQVTVSS	low polyreactivity
QVQLVESGGGLVQAGGSLRLSCSASGRIFSANAMGWYRQAPVKERELVATISTGGGRTYYADSVKGRFTISRDNAKNTVYLQMNSLKPEDTAVYYCNATRNYARVRYYYWGQGNQVTVSS	high polyreactivity
QVQLVESGGGLVQAGGSLRLSCAASGSTFSGYAMGWYRQAPGKERELVAAINWNGGRTYYADSVKGRFTISRDNAKNTVYLQMYSLKPADTAVSYCNKQSPRGRSAVYKYDYWGQGTQVTVSS	high polyreactivity
QVQLVESGGGLVQAGGSLRLSCAASGRTSGVYSMGWYRQAPGKERELVAAISRSGDSTYYADSVKGRFTISRDNAKNTVYLQMNSLKPEDTAVYYCATTFKRSMYWGQGTQVTVSS	high polyreactivity
QVQLVESGGGLVQAGGSLRLSCAASGLILGVYSMGWYRQAPGKEREFVASINYGGGSTYYADSGKGRFTISRDNAKNTVYLQMNSLKPEDTAVYYCNARSRWGGTRLYSYDYWGQGTQVTVSS	low polyreactivity
QVQLVESGGGLVQAGGSLRLSCAASGRIFKVYTMGWYRQAPGKERELVATITRSGTSTYYADSVKGRFTISRDNAKNTVYLQMNSLKPEDTAVYYCARRVGYKFSYDYWGQGTQVTVSS	high polyreactivity
QVQLVESGGGLVQAGGSLRLSCAASGSILPRYGMGWYSQAPGKEREFVAAISWRGGRTYYADSVKGRFTISRDTAKHTVYVQMNSLKPEDTAVYYCAARAHIYTRLDYWGQGTEVTVSS	high polyreactivity
QVQLVESGGGLDQAGGSLRLSCAASVRIFEENAMGWSRQAPGKEREFVAVITSSGGGTYYADSVKGRFTISRDKAKNTVYLQMNSLKPEDTAVYYCARADKLHTRGWGRWGSGSYSWGQGTQVTVSS	low polyreactivity
QVQLVESGGGLVQAGGSLRLSCAASGRIFRYYAMGGYRQAPGKERELVATISRSGGSTFYAYSVKGRFTISRDNAKNTVYLQMNSLKPEDTAVYYCNARYQTGGYGYWGQGTQVTVSS	high polyreactivity
QVQLVESGGGLVQAGGSLRLSCAASGSTFRVNAMGWYRQAPGKERELVAAISFSAGGTYYADSVKGRFTISRDNAKNTVYLQMNSLKPADTAVYYCNARYGGWVWSTYDHWGQGTQVTVSS	low polyreactivity
QVQLVESGGGIVQAGGSLRLSCAASGRIFGGNAMGWYRQAPGKERELVADISYGGGSTNYADSVKGRFTISRDNAKNTVYLQMNSLKPVDTAVYYCARDAWNTDGAYIGGDYDYWGQGTQVNVSS	low polyreactivity
QVQLVESGGGLVQAGGSLRLSCAASGRTFYNYAMGWYRQAPGKEREFVAAISSSGGSTYYADSVKGRFTISRDNAKNTVYLQMNSLKPEDTAVYYCAAYYISFDYWGQGTKVTVSS	high polyreactivity
QVQLVESGGGLVQAGGSLRLSCAASGRTFYVNAMGWYRQAPGKERELVAGISFSDGSTYYADSVKGRFTISRDNAKNTVYLQMNSLKPEDTAVYYCASVGAFDIYYGYGYWGQGTQVTVSS	low polyreactivity
QVQLVESGGGLVQAGGSLRLSCAASGSTFWTNDMGWYRQAPGKERELVAAISQSAGDTYYADSVKGRFTISRDNAKNTVYLQMNSLKPEDTAVSYCAADLVFYPFTWDGYYYWGQGTQVTVSS	low polyreactivity
QVQLVESGGGLVQAGGSLRLSCAASGRTFGPYAMGWYRQAPGKEREFVAAISYSGGSTYYADSVKGRFTISRDNAKNTVYLQMNSLKPEDTAVYYCAVDIDSNSGTRDYWGQGTQVTVSS	low polyreactivity
QVQLVESGGGLVQAGGSLRLSCAASGFIFRWYAMGWYRQAPGKERELVAAITWRGGSTYADSVKGRFTISRDNAKNTVYLQMNSLKPEDTAVCYCAAETHRRYDYWGQGTQVTVSS	high polyreactivity
QVHLVESGGGLVQAGGSLRLSCAASARIFRYYTMGWNRQAPGKERELVAAISVSGGSTYYADSVKGRFTSSRDNAKNTVYILMNSLKPEDTAVYYCAAPFVWSSYRGYDYWGQGSQVTVSS	high polyreactivity
QVQLVESGGGLVQAGGSLRLSCAASGFTLARYAMGWYRQAPGKERELVAGITGGGSTYYADSVKGRFTISRDNAKNTVYLQMNSVKPEDTAVYYCNARTYWKSRLKQYNYWGQVTQVTVSS	high polyreactivity
QVQLVESGGGLVQAGGSLRLSCAASGSIFWRYAMGWYRQAPGKERELVAAINYSTTRTYYADSVKGRFTISLDNAKNTVYLQMNSLKPEDTAVYYCAADSRVDEGEYWGQGTQVTVSS	high polyreactivity
QVQLVESGGGLVQAGGSLRLSCAASGSTISFYAMGWYRQAPGKERELVAAISRSGGSTFYADSVKGRFTISRDNAKNTVYLQMNSLKPEDTAVYYCAAYGGMQSRYYYWGQGTQVTVSS	high polyreactivity
QVQLVESGGGLVQAGGSLLLSCAASGSIFGYYAMGWYRQAPGKERELVAAITRRGGSTYYADSVKGRFTISRDNAKNTVYLQMNSLKPEDTAVYYCNKVTRTEYDYWGQGTQVTVSS	high polyreactivity
QVQLVESGGGLVQAGGSLRLSCAASGSTFSYNAMGWYRQAPGKERELVAAISWSGGSTYYADSVKGRFTISRDNAKNTVYLQMNSLKPEDTAVYYCASDSPYGYYEGDYWGQGTQVTVSS	low polyreactivity

Sequence	polyreactivity (PSR sort gate)
QVQLVESGGGLVQAGGSLRLSCAASGGIFWYYTRVWYRQAPGKERELVATISSGGRTYYADSVKGRFTISRDNAKNTVYLQMNSLKPEHTAVYYCAAVGWYHDYYWGQGTQVTVSS	high polyreactivity
QVQLVESGGGLVQAGGSLRLSCAASGSIFFRYAMGWYRQAPGKERELVAGITYSSGSSTYADSVKGRFTISRHNAKNTVYLQMNSLKPEDTAVYYCAAAYRFPGNRYDYWGQGTQVTVSS	low polyreactivity
QVQLVESGGGLVQAGGSLRLICAASGSTFSDNAMGWYRPAPGKERELVAAISRSGGSTYYADSVKGRFTLSRDNANNTVYLQMNSLKPEDTAFYYGATKSVLTGYDSWGQGTKVTVSS	high polyreactivity
QVQFVESGGGLVKAGGSLRLSCAASGYTFGRYAMGWYRQAPGKERELVAAITKSGGPTSYADSVKGRFTISRDNAKNTVYLQMNSLKPEDTAVYYCNKVLFQPYWVVYATGDYWGQGTQVTVSS	high polyreactivity
QVQLEESGGGLVKAGGSLRLSSAASGITIGIYLIGWYRQAPGTESEFVATISRSDDNTYYADSVMGRFTISRDNAKNTVYLQMNSLKPEDSAVYYCPADGVISAWYSSRDDYWGKGTQVTVSS	low polyreactivity
QVQLVESGGGLVQAGGSLRLSCSASGSIIYANAMGWYRPAPGKEREFVATITDSGAITYYADSVKGRFTISRDNAKNTVYLQMNSLKPEDTAVYYCNKDLVVYYVPTHDYDYWGQGTQVTVSS	low polyreactivity
QVQLVESGGGLVQAGGSLRLSCAASGLTFVTYVMGWYRPAPGKERELVAAISYSGGSTYYADSVKGRFTISRDNAKNTVYLQMNSLKPEDTAVYYCAAEWYGYQEDDYWGQGTQVTVSS	low polyreactivity
QVQHVESGGGLVQAGGSLRLSCAASGRIYRKAMGWYRQAPGKERELVAVITRGGSTNYADSVKGRFTISRDNAKNSVYLQMNSLKPEDTAVYYCAATYSYRFSSFDYWGQGTQVTVSS	high polyreactivity
QVQLVESGGGLVQAGGSLRLSCAASGRIFLYYAMGWYRQAPGKERELVAAISRRGASTYYADSVKGRFTITRDNAKNNVYLQMHSLKPEDTAVYYCGTVPGKSGDYWGQGTQLTVSS	high polyreactivity
QVQLVESGGGLVQAGGSLRLSCAASGSTSLYYAMGWYRPAPGKEREFVAAITWSGGSTYYADSVKGRFTISRDNAKNTVYLQMNSLKPEDTAVYYCAARSYGYSAGYYWGQGTQVTVSS	high polyreactivity
QVQLVESGGGLVQAGGSLRLICAASGRIFRQNAMGWYRQEPGKERELVASISSGGNTYYADSVKGRFTISRDNAKNTVYLEMNSLKPEDTAVYYCAAAKQRYYRWWTTPGYDYWGQGTQVTVSS	low polyreactivity
QVQLVESGGGLVQAGGSLRLSCAASGFTFAAYAMGWYRQAPGKESELVAAITSRDGTTYYADSVKGRFTISRNNAKNTVYLQMNSLKPEDTAVYYCAKDHFTWGVSEDDYWRQGTQVTVSS	low polyreactivity
QVQLVESGGGLVQAGGSLRLSCAASGFTFFYYAMGWYRKAPGKERELVARISSSGGRTYYSDSVKGRFTISRDNAKNTVYLQMNSLKPEDTAVYYCNARYYYYYTRYDYWGQGTQVTVSS	high polyreactivity
QVQLVESGGGLVQAGGSLRLSCAASGFTFVRNAMGWYRQAPGKERELVAAISDRGGTYYADSVKGRFTISRDNAKNTVYLQMNSLKPEDTAVYYCAAKYWYPYQYSHGSFYYWGQVTQVTVSS	high polyreactivity
QVQLVESGGGLVQAGGSLRLSCAASGSIFEPYTMGWYRQAPGKERELVAAITGSGGSTFYADSVKGRFTISRDNAKNTVYLQMNSLKPEDTAVYYCNAFAYPYTDVDYWGQGTQVTVSS	low polyreactivity
QVQLVESGGCLVQAGGSLRLSCASSGSTFTHYAMGWYIQSPGKERELVAAISSGGSTYYADSVKGRFTISRDNAKNTVYLQMNSLKPEDTAVYYCAADYYLHDWWYPHDYWGQGTQVTVSS	low polyreactivity
QVQLVESGGGLVQAGGSLRLSCAASGYTFGYYALGRYRPAPGKERELVAAISSGGITKYADSVKGRFTISRENAKNTVYLQMNSLKPEDTAVYYCAASWYRYRFIRYDYWGQGTQVTVSS	high polyreactivity
QVHLVESGGGLVQAGGSLRLCCAASGSILVSYAMGWYRQAAGKERELVAAITYTGGNTYYADSGKGRFTISRDNAKNTVYVQLNSQKPEDTAVYYCNAGWTQTSVTFDYWGQGTQVTVSS	low polyreactivity
QVQLVESGGGLVQAGGSLRISCAASGRILLRNVMGWYRQAPGKERELVAVITRTGITYYAYSVKGRFTISRDNAKNTVYLQMNSLKPEDTAVYYCAAGLPKYEHDYWGQGTQVTVSS	low polyreactivity
QVQLVESGGGLVQAGGSLRLSCAASGSIFGPNAMGWYRQAPGKERELGAAISWRGGSTYYADSVKGRFTISRDTAKNTVYLQMNSLKPEDTAVYYCNKYLTWAEGLPGYDYWGQGTQVTVSS	high polyreactivity
QVQLVESGGGLVQAGGSLRLSCAASGFTFKLYAMGWYRQSPGKVRELVAAISSSGGRTYYADSVKGRFTISRDNAKYTVYLQMNSLKPEDTAVYYCNAVRTVNDYHYDYWGQGSQVTVSS	high polyreactivity
